This passage reports percent decrease of p97 in the IP (ratio to PLAA) against WT PLAA results from PMC11033462.

The target of test [1] is PLAA p.Leu795Met, Myc-tagged (human) (UniProt Q9Y263). In words: affinity purification with mass spectrometry; Myc-PLAA overexpressed in HEK293T, captured from cleared lysate on Myc-beads (20 mM HEPES pH 7.5, 100 mM NaCl, 0.2% n-dodecyl-β-D-maltoside, 4°C, 2 h), eluted with 10 M urea, LC-MS/MS; cut off 5-fold enrichment over untransfected controls; protein abundance as a ratio to PLAA.

For test [2], the target named is PLAA p.Ile609Thr, Myc-tagged (human) (UniProt Q9Y263). Described as above.
Test [3] deals with PLAA p.Leu795Met, Myc-tagged (human) (UniProt Q9Y263). In words: co-IP; Myc-PLAA overexpressed in HEK293T, captured from cleared lysate on Myc-beads (4°C, 2 h), eluate probed by western blot (anti-VCP, anti-SAKS1, anti-MYC); p97 band divided by the Myc-PLAA band. (Immunoblotting shows a protein as a band on a membrane.)
Test [4] concerns the target PLAA p.Ile609Thr, Myc-tagged (human) (UniProt Q9Y263). Described as above.

For the substance “VCP/p97 (from UniProt P55072 1-806) (natural protein)”, the percent decrease of p97 in the IP (ratio to PLAA) against WT PLAA stood at 20% in test [1], 50% in test [2], 50% in test [3] and 80% in test [4].
